Test results from the supplement of paper PMC10567573.

B1: HDAC6 (parent)
chain: QYMNEGELRVLADTYDSVYLHPNS

Variants of: B1
Experiment: protein stability index of a GFP-peptide fusion (GPS, HEK-293T) (PSI 1-6); higher = more stable
Settings: c terminus: a fixed tail appended
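Also: lentivirally expressed fusions sorted by FACS into six bins by GFP to DsRed ratio, PSI derived from sequencing read proportions per bin multiplied by bin number.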

| Variant | protein stability index |
| --- | --- |
| QYMNEGELRVLADTYDSHYLHPNS | 2.68 |
| QYMNEGELRVLADTYDSKYLHPNS | 2.63 |
| QYMNEGELRVLADTYDSNYLHPNS | 2.98 |
| QYMNEGELRVLADTYDSAYLHPNS | 2.56 |
| QYMNEGELRVLADTYDSRYLHPNS | 2.63 |
| QYMNEGELRVLADTYDSTYLHPNS | 1.77 |
| QYMNEGELRVLADTYDSLYLHPNS | 1.95 |
| QYMNEGELRVLADTYDSIYLHPNS | 1.51 |
| QYMNEGELRVLADTYCSVYLHPNS | 4.03 |
| QYMNEGELRVLADTYESVYLHPNS | 2.42 |
| QYMNEGELRVLADTYPSVYLHPNS | 2.56 |
| QYMNEGELRVLADTCDSVYLHPNS | 2.46 |
| QYMNEGELRVLADTQDSVYLHPNS | 2.95 |
| QYMNEGELRVLADTWDSVYLHPNS | 2.25 |
| QYMNEGELRVLADTLDSVYLHPNS | 2.69 |
| QYMNEGELRVLADTFDSVYLHPNS | 1.83 |
| QYMNEGELRVLADTPDSVYLHPNS | 1.9 |
| QYMNEGELRVLADTHDSVYLHPNS | 3.13 |
| QYMNEGELRVLADTMDSVYLHPNS | 2.79 |
| QYMNEGELRVLADTKDSVYLHPNS | 3.46 |
| QYMNEYELRVLADTYDSVYLHPNS | 2.5 |
| QYMNEDELRVLADTYDSVYLHPNS | 1.89 |
| QYMNECELRVLADTYDSVYLHPNS | 2.26 |
| QYMNESELRVLADTYDSVYLHPNS | 1.98 |

| Variant | protein stability index |
| --- | --- |
| QYMNEAELRVLADTYDSVYLHPNS | 3.02 |
| QYMNEGELRVLADTYDSVYLHPDS | 1.8 |
| QYMNEGELRVLADTYDSVYLHPIS | 2.31 |
| QYMNEGELRVLADTYDSVYLHPMS | 1.23 |
| QYMNEGELRVLADTYDSVYLHPQS | 1.92 |
| QYMNEGELRVLADTYDSVYLHPSS | 2.34 |
| QYMNEGELRVLADTYDSVYLHPAS | 1.43 |
| QYMNEGELRVLADTYDSVYLHPKS | 2.36 |
| QYMNEGELRVLADTYDSVYLHPNE | 1.73 |
| QYMNEGELRVLADTYDSVYLHPNL | 1.52 |
| QYMNEGELRVLADTYDSVYLHPNW | 1.24 |
| QYMNEGELRVLADTYDSVYLHPNM | 1.57 |
| QYMNEGELRVLADTYDSVYLHPNV | 1.74 |
| QYMNEGELRVLADTYDSVYLHPNI | 3.21 |
| QYMNEGELRVLADTYDSVYLHPNT | 1.52 |
| QYMNEGELRVLADTYDSVYLHPNQ | 3.76 |
| QYMNEGELRVLADTYDSVYLHPNC | 1.64 |
| QYMNEGELRVLADTYDSVYLHPNG | 2.24 |
| QYMAEGELRVLADTYDSVYLHPNS | 1.8 |
| QYMFEGELRVLADTYDSVYLHPNS | 1.21 |
| QYMLEGELRVLADTYDSVYLHPNS | 1.55 |
| QYMTEGELRVLADTYDSVYLHPNS | 2.16 |
| QYMKEGELRVLADTYDSVYLHPNS | 2.2 |
| QYMVEGELRVLADTYDSVYLHPNS | 1.68 |

| Variant | protein stability index |
| --- | --- |
| QYMMEGELRVLADTYDSVYLHPNS | 2.76 |
| QYMEEGELRVLADTYDSVYLHPNS | 3.02 |
| QYMPEGELRVLADTYDSVYLHPNS | 2.81 |
| QYMCEGELRVLADTYDSVYLHPNS | 2.08 |
| QYMQEGELRVLADTYDSVYLHPNS | 2.19 |
| MYMNEGELRVLADTYDSVYLHPNS | 1.66 |
| IYMNEGELRVLADTYDSVYLHPNS | 1.83 |
| SYMNEGELRVLADTYDSVYLHPNS | 2.04 |
| RYMNEGELRVLADTYDSVYLHPNS | 1.43 |
| EYMNEGELRVLADTYDSVYLHPNS | 1.93 |
| YYMNEGELRVLADTYDSVYLHPNS | 1.69 |
| QYMNEGTLRVLADTYDSVYLHPNS | 2.62 |
| QYMNEGNLRVLADTYDSVYLHPNS | 1.72 |
| QYMNEGLLRVLADTYDSVYLHPNS | 2.69 |
| QYMNEGRLRVLADTYDSVYLHPNS | 1.55 |
| QYMNEGYLRVLADTYDSVYLHPNS | 1.44 |
| QYMNEGGLRVLADTYDSVYLHPNS | 3.04 |
| QYMNEGMLRVLADTYDSVYLHPNS | 2.81 |
| QYMNEGPLRVLADTYDSVYLHPNS | 2.64 |
| QYMNEGSLRVLADTYDSVYLHPNS | 2.04 |
| QYMNEGHLRVLADTYDSVYLHPNS | 2.26 |
| QYMNEGWLRVLADTYDSVYLHPNS | 1.72 |
| QYFNEGELRVLADTYDSVYLHPNS | 2.15 |
| QYHNEGELRVLADTYDSVYLHPNS | 3.64 |

| Variant | protein stability index |
| --- | --- |
| QYWNEGELRVLADTYDSVYLHPNS | 2.29 |
| QYYNEGELRVLADTYDSVYLHPNS | 2.56 |
| QYENEGELRVLADTYDSVYLHPNS | 3.88 |
| QYPNEGELRVLADTYDSVYLHPNS | 4.02 |
| QYRNEGELRVLADTYDSVYLHPNS | 3.65 |
| QYTNEGELRVLADTYDSVYLHPNS | 2.99 |
| QYINEGELRVLADTYDSVYLHPNS | 3.39 |
| QYMNEGELRVLAITYDSVYLHPNS | 2.2 |
| QYMNEGELRVLALTYDSVYLHPNS | 1.45 |
| QYMNEGELRVLATTYDSVYLHPNS | 2.08 |
| QYMNEGELRVLAQTYDSVYLHPNS | 1.57 |
| QYMNEGELRVLARTYDSVYLHPNS | 1.27 |
| QYMNEGELRVLAFTYDSVYLHPNS | 3.63 |
| QYMNEGELRVLAWTYDSVYLHPNS | 1.37 |
| QYMNEGELRVLAVTYDSVYLHPNS | 1.97 |
| QYMNEGELRVLAPTYDSVYLHPNS | 1.94 |
| QYMNEGENRVLADTYDSVYLHPNS | 2.62 |
| QYMNEGERRVLADTYDSVYLHPNS | 2.94 |
| QYMNEGEARVLADTYDSVYLHPNS | 2.53 |
| QYMNEGEPRVLADTYDSVYLHPNS | 3.84 |
| QYMNEGEERVLADTYDSVYLHPNS | 3.51 |
| QYMNEGEMRVLADTYDSVYLHPNS | 1.85 |
| QYMNEGESRVLADTYDSVYLHPNS | 2.55 |
| QYMNEGELRVLADQYDSVYLHPNS | 3.12 |

| Variant | protein stability index |
| --- | --- |
| QYMNEGELRVLADNYDSVYLHPNS | 2.36 |
| QYMNEGELRVLADFYDSVYLHPNS | 1.73 |
| QYMNEGELRVLADDYDSVYLHPNS | 2.84 |
| QYMNEGELRVLADPYDSVYLHPNS | 2.53 |
| QYMNEGELRVLADVYDSVYLHPNS | 1.5 |
| QYMNEGELRVLADHYDSVYLHPNS | 2.73 |
| QYMNFGELRVLADTYDSVYLHPNS | 1.72 |
| QYMNPGELRVLADTYDSVYLHPNS | 2.57 |
| QYMNAGELRVLADTYDSVYLHPNS | 2.95 |
| QYMNDGELRVLADTYDSVYLHPNS | 1.88 |
| QYMNNGELRVLADTYDSVYLHPNS | 3.15 |
| QYMNGGELRVLADTYDSVYLHPNS | 2.85 |
| QYMNKGELRVLADTYDSVYLHPNS | 1.9 |
| QYMNEGELRVLADTYDSVYSHPNS | 3.32 |
| QYMNEGELRVLADTYDSVYRHPNS | 2.06 |
| QYMNEGELRVLADTYDSVYPHPNS | 2.68 |
| QYMNEGELRVLADTYDSVYWHPNS | 1.67 |
| QYMNEGELRVLADTYDSVYIHPNS | 1.39 |
| QYMNEGELRVLADTYDSVYTHPNS | 2.88 |
| QYMNEGELRVLADTYDSVYGHPNS | 2.14 |
| QYMNEGELRVLADTYDSVYKHPNS | 1.87 |
| QYMNEGELRVLADTYDSVYHHPNS | 3 |
| QYMNEGELRVLADTYDSVYMHPNS | 2.14 |
| QYMNEGELRVLADTYDSVYLHNNS | 1.38 |

| Variant | protein stability index |
| --- | --- |
| QYMNEGELRVLADTYDSVYLHMNS | 2.15 |
| QYMNEGELRVLADTYDSVYLHANS | 2.15 |
| QYMNEGELRVLADTYDSVYLHCNS | 1.85 |
| QYMNEGELRVLADTYDSVYLHLNS | 1.3 |
| QYMNEGELRVLADTYDSVYLHKNS | 1.96 |
| QYMNEGELRVLADTYDSVYLHFNS | 1.82 |
| QYMNEGELRVLADTYDSVYLHRNS | 1.96 |
| QYMNEGELRVLADTYDSVMLHPNS | 1.9 |
| QYMNEGELRVLADTYDSVCLHPNS | 2.13 |
| QYMNEGELRVLADTYDSVQLHPNS | 3 |
| QYMNEGELRVLADTYDSVRLHPNS | 1.59 |
| QYMNEGELRVLADTYDSVWLHPNS | 4.22 |
| QYMNEGELRVLADTYDSVHLHPNS | 2.45 |
| QYMNEGELRVLADTYDSVVLHPNS | 4.09 |
| QYMNEGELRVLADTYDSVLLHPNS | 2.1 |
| QYMNEGELEVLADTYDSVYLHPNS | 2.7 |
| QYMNEGELHVLADTYDSVYLHPNS | 3.19 |
| QYMNEGELWVLADTYDSVYLHPNS | 1.23 |
| QYMNEGELFVLADTYDSVYLHPNS | 3.31 |
| QYMNEGELPVLADTYDSVYLHPNS | 3.26 |
| QYMNEGELSVLADTYDSVYLHPNS | 2.05 |
| QPMNEGELRVLADTYDSVYLHPNS | 4.32 |
| QAMNEGELRVLADTYDSVYLHPNS | 1.43 |
| QWMNEGELRVLADTYDSVYLHPNS | 2.11 |

| Variant | protein stability index |
| --- | --- |
| QQMNEGELRVLADTYDSVYLHPNS | 2.47 |
| QKMNEGELRVLADTYDSVYLHPNS | 3.46 |
| QYMNEGELRNLADTYDSVYLHPNS | 2.15 |
| QYMNEGELRYLADTYDSVYLHPNS | 2.95 |
| QYMNEGELRTLADTYDSVYLHPNS | 2.18 |
| QYMNEGELRDLADTYDSVYLHPNS | 3.61 |
| QYMNEGELRILADTYDSVYLHPNS | 1.84 |
| QYMNEGELRSLADTYDSVYLHPNS | 2.81 |
| QYMNEGELRKLADTYDSVYLHPNS | 2.01 |
| QYMNEGELRLLADTYDSVYLHPNS | 1.66 |
| QYMNEGELRVLADTYDSVYLTPNS | 1.38 |
| QYMNEGELRVLADTYDSVYLPPNS | 1.85 |
| QYMNEGELRVLADTYDSVYLFPNS | 3.64 |
| QYMNEGELRVLADTYDSVYLAPNS | 1.43 |
| QYMNEGELRVLADTYDSVYLDPNS | 1.84 |
| QYMNEGELRVLADTYDSVYLIPNS | 2.25 |
| QYMNEGELRVLADTYDSVYLNPNS | 2.21 |
| QYMNEGELRVLADTYDSVYLGPNS | 1.64 |
| QYMNEGELRVLADTYDSVYLWPNS | 1.84 |
| QYMNEGELRVLADTYDSVYLRPNS | 1.76 |
| QYMNEGELRVHADTYDSVYLHPNS | 3.13 |
| QYMNEGELRVWADTYDSVYLHPNS | 2.64 |
| QYMNEGELRVQADTYDSVYLHPNS | 2.32 |
| QYMNEGELRVCADTYDSVYLHPNS | 1.95 |

| Variant | protein stability index |
| --- | --- |
| QYMNEGELRVVADTYDSVYLHPNS | 2.25 |
| QYMNEGELRVGADTYDSVYLHPNS | 2.46 |
| QYMNEGELRVLADTYDQVYLHPNS | 2.5 |
| QYMNEGELRVLADTYDHVYLHPNS | 2.07 |
| QYMNEGELRVLADTYDIVYLHPNS | 2.32 |
| QYMNEGELRVLADTYDKVYLHPNS | 1.78 |
| QYMNEGELRVLADTYDRVYLHPNS | 2.18 |
| QYMNEGELRVLADTYDEVYLHPNS | 2.99 |
| QYMNEGELRVLADTYDNVYLHPNS | 2.08 |
| QYMNEGELRVLADTYDCVYLHPNS | 2.46 |
| QYMNEGELRVLHDTYDSVYLHPNS | 2.31 |
| QYMNEGELRVLFDTYDSVYLHPNS | 2.89 |
| QYMNEGELRVLSDTYDSVYLHPNS | 2.58 |
| QYMNEGELRVLVDTYDSVYLHPNS | 1.09 |
| QYMNEGELRVLKDTYDSVYLHPNS | 1.98 |
| QYMNEGELRVLTDTYDSVYLHPNS | 2.54 |
| QYMNEGELRVLMDTYDSVYLHPNS | 3.21 |
| QYMNEGELRVLYDTYDSVYLHPNS | 2.1 |
| QYMNEGELRVLWDTYDSVYLHPNS | 1.02 |
| QYMNEGELRVLQDTYDSVYLHPNS | 2.04 |
